B1: AS04_1609 (protein)
chain: MNRTTEQRNAEVMKTIGLLDQMPRVEVDHLFRVRLMQRIEAMEVKKTSWSALPGGAFNPRLAFMALLLMLNIASALMLFMHGTPQATGSSGAIAESLTEDYGGPALSYYDDQTTIDR
B2: AS03_1244 (protein)
chain: MKQFDPDVNIRPKEDSIRHYSVPDDYFASFTDKLMAQIPAVKEENTVVVPSVALWPKLRPLLYLAASFLLMIGMFKAFSLFGVGSDTGRTTSTSAGLVALDHGDTRWSEDTDYRDFLHDNCAETVSDEWVLTDFSE
B3: AS03_1198 (protein)
chain: MDKDFDFDNIGKRTPYRTPDNFFEETQRKILERTVDEQRKKRRLKRIIPTVIAVAAVLAGILFTPSLRYMNTDTPSASNILAVDKNNVTTDPVDKWIKELSDEELEELVSFSENDIFLN
B4: AS01_3473 (protein)
chain: MSNYDNAELLALWLEGKLTPKQRDEFEQRCIQDSQFAEQVDAAAMVKIGADDYSSSEVPQWNKAATFEPQQANNSGSWLSGVSLVTSALAIVLVLTGTQVTTSEGELRIRFGSGQSEQALVKLVDSKLDAFKQNQQDAFTLYAQTLQQQQSESASQLTNYLLSSSRKERREDFAELIKFVNQQRSDDQLFYARQLNQLQQDVYHDATGVALESIQQ
B5: AS11_987 (protein)
chain: MNKHPDNNLLEAYASGSIDAVSGLVVATHLETCSKCRAYVNQVEASQANTVSESPSEYSPEFDDMLNDIINAEPVNDNVVIQDTAFVNVAGKSFELPKTLVRFSDLVGSWRSYGGKVFSAQIDLGEDARVSLMYIGENVQIPQHTHRGLESTLVLHGGFSDEDGQYEEGDLMVRDASVKHSPFTQEGEDCLCLTVLTEPMIFTQGVARIFNLFGKGLYP

The target of one assay is T1, ECF28_1088.
T1 chain: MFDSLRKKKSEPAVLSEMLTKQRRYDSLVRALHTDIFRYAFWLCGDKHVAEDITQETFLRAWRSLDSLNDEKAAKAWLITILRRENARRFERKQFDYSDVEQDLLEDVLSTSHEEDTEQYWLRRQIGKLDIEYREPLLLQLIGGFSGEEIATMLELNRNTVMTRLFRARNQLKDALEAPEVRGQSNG
B1: the fold repression stood at 0.742.

Consider B2, for which the fold repression was determined as 1.36.

As to B3, the fold repression turned out to be 1.24.

Regarding B4, the fold repression was determined as 1.59.

In the case of B5, the fold repression came out at 1.97.

The target of another assay is T2, ECF37_2513.
T2 chain: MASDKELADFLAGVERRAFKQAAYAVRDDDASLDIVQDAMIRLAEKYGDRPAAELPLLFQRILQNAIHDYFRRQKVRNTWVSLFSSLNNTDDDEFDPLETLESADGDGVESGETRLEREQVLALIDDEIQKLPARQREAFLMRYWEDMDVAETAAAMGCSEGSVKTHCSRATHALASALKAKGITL
Turning to B1, the fold repression was found to be 2.72.

Take B2: the fold repression came out at 1.89.

Regarding B3, the fold repression turned out to be 1.07.

For the molecule B4, the fold repression came to 1.38.

Turning to B5, the fold repression amounted to 1.66.

A further assay deals with T3, ECF28_1040.
T3 chain: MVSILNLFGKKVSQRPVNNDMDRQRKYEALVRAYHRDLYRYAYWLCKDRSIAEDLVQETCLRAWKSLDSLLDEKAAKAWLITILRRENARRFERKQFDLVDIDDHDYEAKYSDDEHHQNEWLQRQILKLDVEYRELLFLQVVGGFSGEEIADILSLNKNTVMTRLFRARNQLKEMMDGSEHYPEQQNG
Regarding B1, the fold repression turned out to be 1.03.

On to B2, for which the fold repression was determined as 1.68.

With B3, the fold repression was determined as 1.23.

For B4, the fold repression stood at 2.3.

With B5, the fold repression was 2.02.

For the next assay, the target named is T4, ECF11_3726.
T4 chain: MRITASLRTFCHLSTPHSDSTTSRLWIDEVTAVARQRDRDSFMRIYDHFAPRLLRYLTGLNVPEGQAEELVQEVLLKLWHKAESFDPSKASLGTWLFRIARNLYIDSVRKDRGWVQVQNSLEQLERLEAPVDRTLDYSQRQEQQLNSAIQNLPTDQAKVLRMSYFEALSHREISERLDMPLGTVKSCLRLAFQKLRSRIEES
On to B1, for which the fold repression came to 13.9.

Take B2: the fold repression was 3.57.

Take B3: the fold repression stood at 1.38.

In the case of B4, the fold repression is 5.65.

Turning to B5, the fold repression is 6.99.

In the next assay the target is T5, ECF16_973.
T5 chain: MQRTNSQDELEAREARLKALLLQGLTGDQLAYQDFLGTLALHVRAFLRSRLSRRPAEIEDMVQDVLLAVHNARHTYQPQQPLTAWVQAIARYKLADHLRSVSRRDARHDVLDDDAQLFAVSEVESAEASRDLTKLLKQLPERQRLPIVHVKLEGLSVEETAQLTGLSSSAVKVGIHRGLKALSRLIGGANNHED
As to B1, the fold repression was 6.3.

On to B2, for which the fold repression was determined as 1.79.

B3: the fold repression was found to be 1.49.

Consider B4, for which the fold repression was found to be 1.49.

Turning to B5, the fold repression amounted to 2.76.

The next assay concerns the target T6, ECF34_1384.
T6 chain: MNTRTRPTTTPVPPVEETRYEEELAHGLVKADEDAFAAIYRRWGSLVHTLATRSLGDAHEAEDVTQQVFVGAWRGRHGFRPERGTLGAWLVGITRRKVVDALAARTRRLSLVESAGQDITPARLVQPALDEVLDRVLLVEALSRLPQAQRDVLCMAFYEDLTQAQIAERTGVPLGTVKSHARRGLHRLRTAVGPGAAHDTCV
As to B1, the fold repression was determined as 2.28.

As for B2, the fold repression stood at 1.65.

Consider B3, for which the fold repression was 0.959.

B4: the fold repression was found to be 1.64.

Consider B5, for which the fold repression came to 2.37.

The next assay deals with T7, ECF16_3622.
T7 chain: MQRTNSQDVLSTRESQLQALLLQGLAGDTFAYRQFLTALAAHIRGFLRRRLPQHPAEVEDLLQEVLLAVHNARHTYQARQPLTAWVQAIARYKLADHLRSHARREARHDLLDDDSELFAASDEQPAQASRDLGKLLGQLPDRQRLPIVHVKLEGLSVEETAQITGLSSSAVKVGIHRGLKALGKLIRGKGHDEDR
Turning to B1, the fold repression is 13.1.

For the molecule B2, the fold repression came out at 2.5.

Turning to B3, the fold repression was determined as 1.26.

Turning to B4, the fold repression amounted to 2.47.

For the molecule B5, the fold repression is 5.11.

The target in another assay is T8, ECF14_3200.
T8 chain: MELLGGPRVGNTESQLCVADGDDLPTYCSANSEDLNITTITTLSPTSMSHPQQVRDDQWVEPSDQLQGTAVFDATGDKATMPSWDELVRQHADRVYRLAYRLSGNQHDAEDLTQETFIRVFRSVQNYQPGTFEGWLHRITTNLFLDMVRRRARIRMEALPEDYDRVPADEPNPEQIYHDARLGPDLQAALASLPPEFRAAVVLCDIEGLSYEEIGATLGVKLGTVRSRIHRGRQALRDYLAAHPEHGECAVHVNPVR
For B1, the fold repression worked out at 4.47.

For B2, the fold repression is 2.19.

As for B3, the fold repression came to 0.974.

As to B4, the fold repression was found to be 2.06.

As for B5, the fold repression is 2.94.

The next assay has as its target T9, ECF03_1244.
T9 chain: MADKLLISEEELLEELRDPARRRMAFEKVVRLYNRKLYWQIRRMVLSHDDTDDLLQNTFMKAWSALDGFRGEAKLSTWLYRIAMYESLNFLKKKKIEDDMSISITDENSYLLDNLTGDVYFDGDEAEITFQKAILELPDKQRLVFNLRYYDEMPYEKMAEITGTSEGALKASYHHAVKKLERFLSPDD
As for B1, the fold repression was 4.39.

With B2, the fold repression amounted to 60.8.

Take B3: the fold repression is 1.36.

Turning to B4, the fold repression amounted to 1.39.

In the case of B5, the fold repression stood at 2.2.

For the next assay, the target named is T10, ECF30_35.
T10 chain: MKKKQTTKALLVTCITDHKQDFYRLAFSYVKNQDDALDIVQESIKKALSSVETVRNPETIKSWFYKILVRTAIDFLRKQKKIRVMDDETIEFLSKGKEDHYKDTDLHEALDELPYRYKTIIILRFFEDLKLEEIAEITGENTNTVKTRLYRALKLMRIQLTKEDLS
As for B1, the fold repression worked out at 1.99.

With B2, the fold repression amounted to 1.54.

B3: the fold repression was 1.17.

Take B4: the fold repression amounted to 1.56.

Regarding B5, the fold repression was 2.89.

The target of the next assay is T11, ECF38_1322.
T11 chain: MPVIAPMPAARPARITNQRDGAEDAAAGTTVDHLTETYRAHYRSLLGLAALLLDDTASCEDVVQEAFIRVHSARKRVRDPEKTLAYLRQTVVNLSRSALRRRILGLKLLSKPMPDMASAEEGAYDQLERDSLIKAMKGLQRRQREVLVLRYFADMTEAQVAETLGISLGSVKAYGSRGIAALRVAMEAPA
For B1, the fold repression was determined as 3.12.

For the molecule B2, the fold repression was 1.68.

Take B3: the fold repression worked out at 1.07.

As for B4, the fold repression was determined as 1.27.

As for B5, the fold repression stood at 2.08.

The target in a further assay is T12, ECF33_423.
T12 chain: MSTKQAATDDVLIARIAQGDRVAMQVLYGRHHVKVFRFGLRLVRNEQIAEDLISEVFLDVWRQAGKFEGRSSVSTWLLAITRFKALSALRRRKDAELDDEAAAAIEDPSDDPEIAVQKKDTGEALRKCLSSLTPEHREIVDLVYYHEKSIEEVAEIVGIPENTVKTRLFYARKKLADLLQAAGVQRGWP
Take B1: the fold repression was determined as 3.53.

As for B2, the fold repression worked out at 1.65.

With B3, the fold repression was 0.857.

In the case of B4, the fold repression was 1.1.

Regarding B5, the fold repression was found to be 2.38.

Another assay addresses T13, ECF03_1198.
T13 chain: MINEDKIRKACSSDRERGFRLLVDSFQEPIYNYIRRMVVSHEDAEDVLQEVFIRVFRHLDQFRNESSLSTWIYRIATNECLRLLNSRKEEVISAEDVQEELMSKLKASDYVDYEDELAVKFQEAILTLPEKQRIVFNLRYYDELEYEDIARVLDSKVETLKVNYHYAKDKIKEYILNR
Take B1: the fold repression was found to be 6.14.

On to B2, for which the fold repression was 2.13.

In the case of B3, the fold repression was found to be 45.8.

Turning to B4, the fold repression came out at 1.5.

As for B5, the fold repression was 2.32.

For another assay, the target named is T14, ECF27_4265.
T14 chain: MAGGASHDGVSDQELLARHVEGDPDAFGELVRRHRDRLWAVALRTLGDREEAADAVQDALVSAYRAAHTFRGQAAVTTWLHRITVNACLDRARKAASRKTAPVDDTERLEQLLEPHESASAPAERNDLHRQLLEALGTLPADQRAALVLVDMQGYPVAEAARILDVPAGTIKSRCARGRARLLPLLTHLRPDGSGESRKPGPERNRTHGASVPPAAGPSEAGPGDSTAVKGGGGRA
On to B1, for which the fold repression was 3.11.

With B2, the fold repression was 1.61.

On to B3, for which the fold repression is 0.852.

For the molecule B4, the fold repression amounted to 1.92.

For B5, the fold repression amounted to 2.05.

The record behind these values is publication PMC3817407.
